Source: article PMC10266124 (mAbs, 2023)

B1: mAb26 (4A8) (antibody, V domains shown)
VH: EVQLVESGAEVKKPGASVKVSCKVSGYTLTELSMHWVRQAPGKGLEWMGGFDPEDGETMYAQKFQGRVTMTEDTSTDTAYMELSSLRSEDTAVYYCATSTAVAGTPDLFDYYYGMDVWGQGTTVTVSS
VL: EIVMTQSPLSSPVTLGQPASISCRSSQSLVHSDGNTYLSWLQQRPGQPPRLLIYKISNRFSGVPDRFSGSGAGTDFTLKISRVEAEDVGVYYCTQATQFPYTFGQGTKVDIK
B2: mAb21 (S2A4) (antibody, V domains shown)
VH: EVQLVESGGGLVQPGGSLRLSCAASGFTFSSYWMNWVRQAPGKGLEWVANIKQDGSEKYYVDSVKGRFTISRDNAKNSLFLQMNSLRAEDTAVYYCARVWWLRGSFDYWGQGTLVTVSS
VL: NFMLTQPHSVSESPGKTVTISCTGSSGSIASNYVQWYQQRPGSAPTTVIYEDNQRPSGVPDRFSGSIDSSSNSASLTISGLKTEDEADYYCQSYDSSNHVVFGGGTKLTVL
B3: mAb03 (imdevimab) (antibody, V domains shown)
VH: QVQLVESGGGVVQPGRSLRLSCAASGFTFSNYAMYWVRQAPGKGLEWVAVISYDGSNKYYADSVKGRFTISRDNSKNTLYLQMNSLRTEDTAVYYCASGSDYGDYLLVYWGQGTLVTVSS
VL: QSALTQPASVSGSPGQSITISCTGTSSDVGGYNYVSWYQQHPGKAPKLMIYDVSKRPSGVSNRFSGSKSGNTASLTISGLQSEDEADYYCNSLTSISTWVFGGGTKLTVL
B4: mAb27 (H014) (antibody, V domains shown)
VH: EVQLVQSGAEVKKPGATVKISCKVSGYSFSNYYIHWVKQAPGKSLEWIGYIDPFNGGTSDNLKFKGAATLTADTSTDTAYMELSSLRSEDTAVYYCARSEYDPYYVMDYWGQGTTVTVSS
VL: IVLTQSPFQSVSPKEKVTITCRASQSISSNLHWYQQKPDQSPKLLIKYASQSISGIPSRFSGSGSGTDFTLTINSLEAEDFGIYFCQQTNFWPYIFGQGTKLEIL

Experiments:
Assay in all cases: electrochemiluminescence
[1] = target: SARS-CoV-2 spike protein, Gamma (P.1) (SARS-CoV-2, Gamma (P.1), E484K)
[2] = target: SARS-CoV-2 spike protein, Delta *1 (B.1.617.2; AY.4) (SARS-CoV-2, Delta B.1.617.2; AY.4 …, L452R)
[3] = target: SARS-CoV-2 spike protein, Delta *3 (B.1.617.2; AY.3; AY.5; AY.6; AY.7; AY.14) (SARS-CoV-2, Delta (B.1.617.2; AY.3; …, L452R)
[4] = target: SARS-CoV-2 spike protein, Delta *2 (B.1.617.2; AY.4.2) (SARS-CoV-2, Delta B.1.617.2; AY.4.2 …, L452R)

Row | Binder | relative binding (% of that to Wuhan spike, from AUCs) [1] | relative binding (% of that to Wuhan spike, from AUCs) [2] | relative binding (% of that to Wuhan spike, from AUCs) [3] | relative binding (% of that to Wuhan spike, from AUCs) [4]
1 | B1 | ≥ 20% | – | – | –
2 | B2 | – | > 80% | > 80% | > 80%
3 | B3 | – | > 80% | > 80% | > 80%
4 | B4 | – | > 80% | > 80% | > 80%
